Results published in PMC11109380.

Legend:
[1] = biological target: human CD3ε Y50E-FLAG expressed in JK εKO cells (human); assay: proximity ligation; in situ PLA (Duolink) with goat anti-CD3ε and mouse anti-LCK in JK εKO cells expressing hCD3ε variants; unstimulated or stimulated with 5 μg/ml anti-CD3ε (OKT3) for 5 min at 37°C; dots per cell normalised to the stimulated WT
[2] = biological target: human CD3ε cytoplasmic tail fused to GST, Y50E (human); assay: pull-down; GST-CD3ε cytoplasmic tail variants on glutathione sepharose beads, incubated with Jurkat T cell lysate (lysis buffer with 0.3% Brij96V, 20 mM Tris-HCl pH 8, 137 mM NaCl) overnight at 4°C; immunoblot, signals normalised to GST
[3] = biological target: human CD3ε cytoplasmic tail fused to GST, Y39/50E (human); assay: as above

Src family kinase LCK (from UniProt P06239 1-509) (enzyme)
reduction of TCR-LCK proximity compared to WT [1]: 60%
residual binding [1]: < 30%
reduction of binding compared to CD3ε WT [2]: 80%
reduction of binding compared to CD3ε WT [3]: 80%
